Data on one substance can be found in article PMC3925748.

This assay has as its target FUS (full-length recombinant protein; tag not told for these experiments) (UniProt P35637). Nature of the assay: cross-linking.

On to “FUS (full-length recombinant protein; tag not told for these experiments) (from UniProt P35637 1-526) (natural protein)”, for which the stoichiometry N is less than 5.
